Laboratory results as given in US20220112276A1 (Janssen / Centocor, published 2022).
Where a chain is given by its changes, count along the chain named. Each block holds one binder with its values, some of them ahead of it.

How the values were obtained:
Assay in all cases: SPR, VHH captured by anti-Fc, ECD analyte
[1] = molecular target: T1, rat pIgR extracellular domain (rat, UniProt P15083 19-643)
T1 construct: extracellular domain
T1 sequence (looked up): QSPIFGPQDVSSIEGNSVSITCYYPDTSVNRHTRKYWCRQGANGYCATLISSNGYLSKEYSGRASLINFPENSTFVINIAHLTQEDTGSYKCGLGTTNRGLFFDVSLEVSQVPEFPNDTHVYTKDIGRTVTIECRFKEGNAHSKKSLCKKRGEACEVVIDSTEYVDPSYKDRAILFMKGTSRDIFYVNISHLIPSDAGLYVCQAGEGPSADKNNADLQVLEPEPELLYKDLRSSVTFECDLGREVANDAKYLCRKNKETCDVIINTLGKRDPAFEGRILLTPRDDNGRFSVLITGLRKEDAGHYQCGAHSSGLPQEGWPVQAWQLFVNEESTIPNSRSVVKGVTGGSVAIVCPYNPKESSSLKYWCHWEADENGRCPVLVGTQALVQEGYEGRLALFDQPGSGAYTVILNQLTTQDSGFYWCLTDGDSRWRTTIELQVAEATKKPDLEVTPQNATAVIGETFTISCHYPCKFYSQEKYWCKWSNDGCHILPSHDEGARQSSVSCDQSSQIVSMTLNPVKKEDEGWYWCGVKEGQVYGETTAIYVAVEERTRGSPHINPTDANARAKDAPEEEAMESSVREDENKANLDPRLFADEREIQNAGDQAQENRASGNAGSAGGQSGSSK
Outline: (§1)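 Single-cycle kinetics: ECD analyte from 30 nM, 3-fold series, low to high, with 30 min off-rate monitoring, over VHH captured at 0.5 ug/ml (~200-300 RU). HBSP plus 100 ug/ml BSA at 30 μL/min. Reference cell and buffer blank subtracted; global 1:1 Langmuir fit gave kon, koff, KD.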

[2] = molecular target: T2, mouse pIgR extracellular domain (ECD) (mouse, UniProt O70570 19-645)
T2 construct: Bought from R&D Systems (Cat 2800-PG-050); also called mpIgR ECD
T2 sequence: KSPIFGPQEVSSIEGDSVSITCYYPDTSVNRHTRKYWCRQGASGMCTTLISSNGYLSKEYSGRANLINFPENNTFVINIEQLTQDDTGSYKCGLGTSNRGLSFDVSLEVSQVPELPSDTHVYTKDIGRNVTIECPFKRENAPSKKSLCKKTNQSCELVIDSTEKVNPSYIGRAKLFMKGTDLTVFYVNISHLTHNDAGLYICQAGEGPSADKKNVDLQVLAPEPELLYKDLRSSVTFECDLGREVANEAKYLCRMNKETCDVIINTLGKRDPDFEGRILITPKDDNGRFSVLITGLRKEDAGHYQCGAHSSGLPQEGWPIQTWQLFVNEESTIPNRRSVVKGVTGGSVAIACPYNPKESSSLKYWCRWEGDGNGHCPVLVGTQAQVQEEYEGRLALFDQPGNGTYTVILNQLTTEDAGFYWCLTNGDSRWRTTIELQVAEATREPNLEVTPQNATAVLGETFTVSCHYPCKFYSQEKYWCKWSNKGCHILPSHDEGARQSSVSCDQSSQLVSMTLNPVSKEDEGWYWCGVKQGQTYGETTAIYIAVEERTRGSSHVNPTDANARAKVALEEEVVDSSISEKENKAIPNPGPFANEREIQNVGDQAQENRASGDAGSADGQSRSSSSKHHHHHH
Outline: as §1

[3] = molecular target: T3, cynomolgus monkey pIgR extracellular domain (cynomolgus monkey, UniProt A0A2K5WMU9 19-638)
T3 construct: extracellular domain
T3 sequence (A0A2K5WMU9 entry or part of it): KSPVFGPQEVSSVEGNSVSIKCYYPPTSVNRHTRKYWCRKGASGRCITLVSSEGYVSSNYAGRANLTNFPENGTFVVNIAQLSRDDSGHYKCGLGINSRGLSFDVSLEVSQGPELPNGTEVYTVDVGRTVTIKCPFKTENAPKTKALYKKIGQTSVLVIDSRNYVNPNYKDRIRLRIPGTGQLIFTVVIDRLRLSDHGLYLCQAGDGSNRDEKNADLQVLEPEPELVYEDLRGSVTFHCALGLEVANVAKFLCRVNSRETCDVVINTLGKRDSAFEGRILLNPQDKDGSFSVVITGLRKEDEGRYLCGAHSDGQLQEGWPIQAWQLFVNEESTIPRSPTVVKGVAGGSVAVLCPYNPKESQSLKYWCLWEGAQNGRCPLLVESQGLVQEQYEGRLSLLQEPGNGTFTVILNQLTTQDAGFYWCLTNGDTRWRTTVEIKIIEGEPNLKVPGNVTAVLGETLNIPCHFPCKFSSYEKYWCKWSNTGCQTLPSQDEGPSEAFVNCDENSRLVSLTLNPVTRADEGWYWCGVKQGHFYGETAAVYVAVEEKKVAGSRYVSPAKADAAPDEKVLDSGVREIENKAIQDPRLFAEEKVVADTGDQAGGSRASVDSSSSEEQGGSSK
Outline: as §1

[4] = molecular target: T4, human pIgR extracellular domain (ECD) (human, UniProt P01833 19-638)
T4 construct: Bought from R&D Systems (Cat 2717-PG-050); also called hpIgR ECD
T4 sequence (P01833 other isoform, or with tags, fused parts or gaps): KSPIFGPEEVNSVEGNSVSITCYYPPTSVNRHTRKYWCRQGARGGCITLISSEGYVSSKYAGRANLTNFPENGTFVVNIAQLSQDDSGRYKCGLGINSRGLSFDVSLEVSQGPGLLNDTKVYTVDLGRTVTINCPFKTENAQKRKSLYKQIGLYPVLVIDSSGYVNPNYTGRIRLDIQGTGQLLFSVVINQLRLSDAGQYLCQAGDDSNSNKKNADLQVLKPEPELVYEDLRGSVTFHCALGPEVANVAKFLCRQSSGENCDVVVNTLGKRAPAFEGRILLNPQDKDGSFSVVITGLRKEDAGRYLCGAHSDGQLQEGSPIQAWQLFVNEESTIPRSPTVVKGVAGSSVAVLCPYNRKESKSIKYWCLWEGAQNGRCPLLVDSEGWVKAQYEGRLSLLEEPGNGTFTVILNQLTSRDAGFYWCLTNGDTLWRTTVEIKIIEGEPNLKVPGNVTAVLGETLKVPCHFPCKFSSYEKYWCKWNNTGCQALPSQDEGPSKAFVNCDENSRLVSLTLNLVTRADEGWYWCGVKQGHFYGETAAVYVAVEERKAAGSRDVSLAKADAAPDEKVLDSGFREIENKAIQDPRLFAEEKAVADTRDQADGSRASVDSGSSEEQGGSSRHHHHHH
Outline: as §1

B1: 02F10R3 VHH Mono-Fc (Fc fusion)
chain: EVQLVESGGGLVQPGGSLRLSCVVSGSFFSLRDMGWYRQAPGKERELVGIFTRGGTTYYADSVKGRFTISRDNAKNTVDLQMNSLKPEDTAVYTCNAEIRQYSANLYRDFWGQGTQVTVSSSPAPELLGGPSVFLFPPKPKDTLMISRTPEVTCVVVDVSHEDPEVKFNWYVDGVEVHNAKTKPREEQYNSTYRVVSVLTVLHQDWLNGKEYKCKVSNKALPAPIEKTISKAKGQPREPQVYTKPPSREEMTKNQVSLSCLVKGFYPSDIAVEWESNGQPENNYKTTVPVLDSDGSFRLASYLTVDKSRWQQGNVFSCSVMHEALHNHYTQKSLSLSPGK
Kd [1]: 6.45 nM
Kd [2]: 6.15 nM

B2: 01C02R3LS VHH Mono-Fc (Fc fusion)
chain: QVQLVESGGGLVQAGDSLRLSCAASGRTRTTYGMGWFRQAPGKEREFVTTITWSGSTNYKYYADSVKGRFTISRDNAKNTVYLQMNSLKPDDTAVYYCAASTVLTDPRVPTEYDYWGQGTQVTVSSSPAPELLGGPSVFLFPPKPKDTLMISRTPEVTCVVVDVSHEDPEVKFNWYVDGVEVHNAKTKPREEQYNSTYRVVSVLTVLHQDWLNGKEYKCKVSNKALPAPIEKTISKAKGQPREPQVYTKPPSREEMTKNQVSLSCLVKGFYPSDIAVEWESNGQPENNYKTTVPVLDSDGSFRLASYLTVDKSRWQQGNVFSCSVMHEALHNHYTQKSLSLSPGK
Kd [3]: 3.09 nM
Kd [4]: 8.62 nM
Kd [1]: 2.77 nM
Kd [2]: 4.96 nM

B3: 01G08R3LS VHH Mono-Fc (Fc fusion)
chain: B2 chain with R29F, A40G, T49A, A63T, D91E, V109R, P110L, T111N
Kd [3]: 5.42 nM
Kd [4]: 8.38 nM
Kd [1]: 2.27 nM
Kd [2]: 5.6 nM

B6: 01H11R2LS VHH Mono-Fc (Fc fusion)
chain: B2 chain with Q1E, R29L, T49A, T52K, D91E, S101G, T105G, P110L, T111N, Q121L
Kd [3]: 2.31 nM
Kd [4]: 4.07 nM
Kd [1]: 1.46 nM
Kd [2]: 2.67 nM

B7: 01H06R3L VHH Mono-Fc (Fc fusion)
chain: B2 chain with Q1E, S56P, V81A
Kd [3]: 1.66 nM
Kd [4]: 5.26 nM
Kd [1]: 0.897 nM
Kd [2]: 4.56 nM

B8: 01B10R3L VHH Mono-Fc (Fc fusion)
chain: QVQLVESGGGLVQAGDSLRLSCAASGRTFTTYVMGWFRQPPGKEREFVATISWSGSTTYKYYADSVKGRFTISRDNAKNTVYLQMNSLKPEDTAVYYCAASTVVADPRAPNEYDYWGQGTQVTVSSSPAPELLGGPSVFLFPPKPKDTLMISRTPEVTCVVVDVSHEDPEVKFNWYVDGVEVHNAKTKPREEQYNSTYRVVSVLTVLHQDWLNGKEYKCKVSNKALPAPIEKTISKAKGQPREPQVYTKPPSREEMTKNQVSLSCLVKGFYPSDIAVEWESNGQPENNYKTTVPVLDSDGSFRLASYLTVDKSRWQQGNVFSCSVMHEALHNHYTQKSLSLSPGK
Kd [3]: 2.19 nM
Kd [4]: 8.4 nM
Kd [1]: 1.58 nM
Kd [2]: 3.75 nM

B9: 01E01R3LS VHH Mono-Fc (Fc fusion)
chain: QVQLVESGGGLVQAGGSLRLSCAASGRSFSSYNMGWFRQAPGKERDLVAVVTWSGGGTSYADSVKGRFTIARDNANARLYLEMTSLKPEDTAIYYCAATQDWYGGTRAFRAASFHSWGQGTQVTVSSSPAPELLGGPSVFLFPPKPKDTLMISRTPEVTCVVVDVSHEDPEVKFNWYVDGVEVHNAKTKPREEQYNSTYRVVSVLTVLHQDWLNGKEYKCKVSNKALPAPIEKTISKAKGQPREPQVYTKPPSREEMTKNQVSLSCLVKGFYPSDIAVEWESNGQPENNYKTTVPVLDSDGSFRLASYLTVDKSRWQQGNVFSCSVMHEALHNHYTQKSLSLSPGK
Kd [4]: 14.5 nM
Kd [1]: 35.2 nM
Kd [2]: 34.5 nM

B11: 01B03R2LS VHH Mono-Fc (Fc fusion)
chain: EVQLVESGGGLVQAGDSLRLSCAASGRTGSSGAMGWFRQGPGKEREFVAALMWRNTVTYSYYADSVKGRFTISRDNAKNTAYLQMNSLKPEDTAVYYCAADPDTYGDPRNSGAYSYWGQGTLVTVSSSPAPELLGGPSVFLFPPKPKDTLMISRTPEVTCVVVDVSHEDPEVKFNWYVDGVEVHNAKTKPREEQYNSTYRVVSVLTVLHQDWLNGKEYKCKVSNKALPAPIEKTISKAKGQPREPQVYTKPPSREEMTKNQVSLSCLVKGFYPSDIAVEWESNGQPENNYKTTVPVLDSDGSFRLASYLTVDKSRWQQGNVFSCSVMHEALHNHYTQKSLSLSPGK
Kd [1]: 11 nM
Kd [2]: 6.33 nM

Continued by falling Kd [1], values first:

Kd [1]: 22.5 nM
Kd [2]: 35.2 nM
B10: 01A09R3LS VHH Mono-Fc (Fc fusion)
chain: QVQLVESGGGLVQAGGSLRLSCAASGRSFSSYNMVWLRQAPGKEREVVAAVTWSGGGTSYADSVKGRFTISRDNANVRVYLQMTGLKPEDTAIYYCAATQDWYGGSRAFRAASFHSWGQGTLVTVSSSPAPELLGGPSVFLFPPKPKDTLMISRTPEVTCVVVDVSHEDPEVKFNWYVDGVEVHNAKTKPREEQYNSTYRVVSVLTVLHQDWLNGKEYKCKVSNKALPAPIEKTISKAKGQPREPQVYTKPPSREEMTKNQVSLSCLVKGFYPSDIAVEWESNGQPENNYKTTVPVLDSDGSFRLASYLTVDKSRWQQGNVFSCSVMHEALHNHYTQKSLSLSPGK

Kd [1]: 19.9 nM
Kd [2]: 12.8 nM
B12: 01B11R3LS VHH Mono-Fc (Fc fusion)
chain: EVQLVESGGGVVQAEDSLRLSCAAPGLPFSSSRMGWFRQAPGKEREFVAAIGWSGRSTYRYYGDSVKGRFTVSGDNAKNTLDLQMKGLKPEDTAVYYCAADPDYYGDYRTSGAWRYWGQGTQVTVSSSPAPELLGGPSVFLFPPKPKDTLMISRTPEVTCVVVDVSHEDPEVKFNWYVDGVEVHNAKTKPREEQYNSTYRVVSVLTVLHQDWLNGKEYKCKVSNKALPAPIEKTISKAKGQPREPQVYTKPPSREEMTKNQVSLSCLVKGFYPSDIAVEWESNGQPENNYKTTVPVLDSDGSFRLASYLTVDKSRWQQGNVFSCSVMHEALHNHYTQKSLSLSPGK

Kd [3]: 4.14 nM
Kd [4]: 9.44 nM
Kd [1]: 3.02 nM
Kd [2]: 5.67 nM
B4: 01C08R2L VHH Mono-Fc (Fc fusion)
chain: B2 chain with Q1E, R29F, M34V

Kd [3]: 5.05 nM
Kd [4]: 5.32 nM
Kd [1]: 1.64 nM
Kd [2]: 2.77 nM
B5: 02E01R3LS VHH Mono-Fc (Fc fusion)
chain: B2 chain with R29F, T105R
